Reference: PMC4361775
Values belong to the substance of their own block, whether it stands above or below them.

Experiments:
[1] = target: type II human collagen (human); assay: SPR
[2] = target: coch_vWFA2_F527C protein, monomeric form (recombinant vWFA2 domain of human cochlin carrying the p.F527C mutation) (human); assay: non-reducing SDS-PAGE
type II collagen = type II collagen (UniProt P02458); assay: SPR; conditions: cited from earlier work
Chain of type II collagen (P02458 182-1241): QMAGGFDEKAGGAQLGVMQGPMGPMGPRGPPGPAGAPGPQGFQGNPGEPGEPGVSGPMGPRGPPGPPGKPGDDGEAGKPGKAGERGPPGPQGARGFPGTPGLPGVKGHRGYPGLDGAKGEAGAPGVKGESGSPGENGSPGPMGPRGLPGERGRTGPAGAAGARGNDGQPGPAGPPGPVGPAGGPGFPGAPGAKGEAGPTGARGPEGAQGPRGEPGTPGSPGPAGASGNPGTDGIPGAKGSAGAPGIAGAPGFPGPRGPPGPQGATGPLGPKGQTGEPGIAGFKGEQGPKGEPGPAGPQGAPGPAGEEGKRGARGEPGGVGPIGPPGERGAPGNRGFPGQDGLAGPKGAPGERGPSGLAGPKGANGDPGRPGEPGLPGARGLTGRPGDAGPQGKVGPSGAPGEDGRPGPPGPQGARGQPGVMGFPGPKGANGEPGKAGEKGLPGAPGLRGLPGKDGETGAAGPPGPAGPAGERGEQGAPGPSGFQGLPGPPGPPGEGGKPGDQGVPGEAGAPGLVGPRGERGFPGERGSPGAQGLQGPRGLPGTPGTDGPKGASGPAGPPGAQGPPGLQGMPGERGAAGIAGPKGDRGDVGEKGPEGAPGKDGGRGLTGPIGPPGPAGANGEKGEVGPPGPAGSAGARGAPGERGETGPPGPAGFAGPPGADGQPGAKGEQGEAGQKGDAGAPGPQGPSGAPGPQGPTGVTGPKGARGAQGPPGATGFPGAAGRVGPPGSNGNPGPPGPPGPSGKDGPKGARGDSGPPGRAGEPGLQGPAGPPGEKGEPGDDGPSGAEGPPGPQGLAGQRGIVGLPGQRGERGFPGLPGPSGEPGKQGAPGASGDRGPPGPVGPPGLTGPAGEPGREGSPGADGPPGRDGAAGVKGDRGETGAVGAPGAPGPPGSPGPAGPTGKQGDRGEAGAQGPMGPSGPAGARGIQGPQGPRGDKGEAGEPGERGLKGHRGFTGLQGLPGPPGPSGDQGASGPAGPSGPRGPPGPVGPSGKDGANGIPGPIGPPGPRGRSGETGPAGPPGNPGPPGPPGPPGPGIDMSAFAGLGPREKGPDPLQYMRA

Kd of the higher-affinity species (heterogeneous analyte, two species 1:1) [1]: 950 nM
Substance: coch_vWFA2_F527C protein, dimeric form (covalent disulfide-bonded dimer) (domain or fragment)

stoichiometry N [2]: 2
Substance: coch_vWFA2_F527C protein, monomeric form (recombinant vWFA2 domain of human cochlin carrying the p.F527C mutation) (domain or fragment)

Substance: cochlin vWFA2 (from UniProt O43405)
Kd (type II collagen): 94.5 nM
